For series [1], the system named is split Nanoluciferase (LgBiT/SmBiT) reconstitution in HEK293 cells. Description: Split NanoLuc reconstitution assay (NanoBiT). Type of series: cell-based, human. To be noted: 100 nM simeprevir over no simeprevir; LgBiT fused to the C-terminus of the PRSIM binding module. Here is the method:
The ability of the PRSIM binding molecules to promote dimerization of two proteins to which they are fused was assessed with the NanoBiT system (Promega) that measures the reconstitution of a split Nanoluciferase (NanoLuc) and the resultant luminescence upon supply of a live cell imaging Nano-Glo NanoLuc substrate (FIG. 8). In the NanoBiT system, one interaction partner is fused via a flexible linker to an 18 kDa fragment of NanoLuc termed LgBiT (for “large bit”) (SEQ ID NO: 16) and the other is fused via an equivalent linker to a 1.3 kDa peptide SmBiT (“small bit”) (SEQ ID NO: 17). LgBit and SmBiT have a low affinity (190 μM) for each other in the absence of interacting partners and will not reconstitute to form an active luciferase enzyme. Once fused to the interacting proteins of a CID and supplied with inducer, they will reconstitute, and luminescence can be measured. The NanoBiT system supplies two sets of control proteins fused to LgBiT and SmBiT: a set of constitutively interacting proteins PRKAR2A:PRKACA; and the FRB:FKBP12 pair whose dimerization can be induced with rapamycin.
To establish the optimal orientation of the HCV NS3/4A PR (S139A) and PRSIM components, constructs whereby HCV NS3/4A PR (S139A) was fused at either the N- or C-terminus to SmBiT (SEQ ID NOs: 18 and 19, respectively) and a parallel set of constructs for each PRSIM binding module fused to either the N- or C-terminus of LgBiT (SEQ ID NOS: 20-30 and 31-41, respectively). The NanoBiT kit (Promega) supplies a set of vectors enabling these constructs to be generated. DNA strings encoding HCV NS3/4A PR (S139A) and the PRSIM molecules were purchased from GeneArt and amplified via PCR with primers with extensions containing restriction sites compatible with the NanoBiT vectors and were cloned via Gibson assembly. All constructs were verified via Sanger sequencing of the entire coding sequence.
All NanoBiT screens were performed in adherent HEK293 cells cultured in 96-well plates. Cells enzymatically dissociated from a tissue culture flask were counted and plated at 2×10^4 cells/well in a white, opaque-bottomed 96-well plate (Costar 3917). The plates were incubated overnight at 37° C. with 5% CO2 to allow the cells to adhere. On day 2, plasmids were co-transfected with Lipofectamine LTX (ThermoFisher) at a final concentration of 100 ng/well (50 ng/plasmid, one encoding a SmBiT fusion, the other a LgBiT fusion). On day 3, wells were treated with 100 nM of the appropriate small molecule inducer (rapamycin (FRB:FKBP12) or simeprevir (HCV NS3/4A PR:PRSIM)) or vehicle control, and luminescence was quantified with an Envision plate reader immediately following addition of Nano-Glo Live Cell Substrate (Promega).

Series [2] deals with luciferase reporter gene in HEK293 cells. Description: Transcriptional regulation assay (split transcription factor), luciferase reporter. Type of series: cell-based, human. To be noted: for EC50: simeprevir dose-response. The source says:
The iDimerize regulated transcription system (Takara) was used to test the ability of PRSIM-based CIDs to regulate gene expression. […] The DBD and AD are separately fused to the two protein components of a CID such that, only in the presence of the small molecule inducer, the AD is brought into close proximity to the DBD, recruiting the transcription machinery to a promoter harbouring the DBD recognition sites. The iDimerize regulated transcription system (Takara) provides two vectors, pHet-Act1-2 and pZFHD1-Luciferase. The pHet-Act1-2 vector encodes two fusion proteins that represent a positive control: one is a fusion between FRB (T82L mutant; DmrC) and an activation domain (AD) from human p65 (SEQ ID NO: 42); the other is a fusion protein comprised of a DNA binding domain (ZFHD1) (SEQ ID NO: 43) fused to three tandem copies of FKBP12 (DmrA). These sequences are preceded by a CMV promoter and separated by an internal ribosome entry site (IRES). The ZFHD1 vector encodes luciferase preceded by an inducible promoter consisting of 12 copies of the recognition sequence of the ZFHD1 DBD upstream of a minimal IL-2 promoter. Binding of the DBD to its recognition sequence and recruitment of the transcriptional machinery by the AD initiates transcription of the luciferase reporter gene. The DNA sequence encoding HCV NS3/4A PR (S139A) was purchased as a DNA string from GeneArt and cloned into the pHet-Act1-2 vector as either an N-terminal fusion partner to the activation domain (SEQ ID NO: 44) (replacing FRB) or as a C-terminal fusion partner to the DNA binding domain (SEQ ID NO: 45) (replacing FKBP12) with flexible linkers (TGGGGSGGGGS (SEQ ID NO: 185) and SA, respectively) between the fusion partners. Subsequently, sequences encoding one copy of a panel of 12 PRSIM molecules (Table 2) were purchased as DNA strings from GeneArt and were cloned using Gibson assembly into the HCV NS3/4A PR (S139A)-containing pHetAct1-2 constructs described above, as a fusion partner to either the DBD (SEQ ID NOS: 46-56) or AD (SEQ ID NOS: 57-67), respectively. An equivalent construct was generated to replace the three copies of FKBP12 in pHet-Act1-2 with a single copy of FKBP12. The sequence of the constructs encoding both activation domain and DNA-binding domain fusion proteins was confirmed by Sanger sequencing of the entire coding region.
Sequences encoding the three HCV NS3/4A PR (S139A) mutants (Table 6) were purchased as DNA strings from GeneArt and were cloned using Gibson assembly into the pHetAct1-2 HCV NS3/4A PR (S139A)-PRSIM_23 (3 tandem copy) construct described above as a fusion partner to the AD (SEQ ID NOs: 211-216).
All transcriptional regulation assays were performed in adherent HEK293 cells cultured in 384-well plates. Cells enzymatically dissociated from a tissue culture flask were counted and plated at 7.5×10^3 cells/well in a 384-well plate. The plates were incubated overnight at 37° C. with 5% CO2 to allow the cells to adhere. On day 2, the cells were co-transfected with a pHet-Act1-2 plasmid (containing the FRB:FKBP12 control fusion proteins (Clontech) or the HCV NS3/4A PR (S139A):PRSIM fusion proteins) and a pZFHD1 plasmid (encoding either luciferase (Clontech) or NanoLuc-PEST (as described above)) using Lipofectamine LTX (ThermoFisher). On day 3, wells were treated with different concentrations of either A/C heterodimeriser (for the FRB:FKBP12 control), simeprevir or with vehicle control, and 24 hours later luminescence was quantified with an Envision plate reader immediately following addition of SteadyGlo luciferase substrate (Promega) or Nano-Glo Vivazine luciferase substrate (Promega). Alternatively, reverse transfections were carried out on Day 1, addition of dimeriser on Day 2 and luminescence quantified 24 hours later on Day 3.
Luminescence readings were converted into fold-change by dividing the signal in the presence of simeprevir by that in the absence of simeprevir.
(Reporter assays use an easily measured gene product as a stand-in for the process of interest.)

For series [3], the system named is fluorogenic HCV protease FRET substrate. Description: HCV NS3/4A PR protease activity assay (fluorogenic peptide cleavage). The series is classed as biochemical. Particulars: compared to WT. Here is the method:
To assess enzyme activity, cleavage of a fluorogenic HCV protease FRET substrate with an EDANS-DABCYL donor-quencher pair by purified HCV NS3/4A PR and the S139A mutant (RET 51, AnaSpec) was measured. When in close proximity (10-100 Å), as would be the case for the intact peptide, EDANS is excited at 340 nm, and the energy emitted from EDANS (at 490 nm) is quenched by DABCYL. Cleavage of the peptide by the HCV NS3/4A PR separates DABCYL from EDANS, allowing detection of fluorescence at 490 nm.
Serial dilutions of HCV NS3/4A PR and the active site mutant S139A in assay buffer (HEPES pH 7.8, 5 mM DTT, 100 mM NaCl, 10% glycerol, 0.01% CHAPS) were incubated with the fluorogenic substrate at room temperature. Fluorescence was measured after 3 hours using a PerkinElmer Envision plate reader (excitation 340 nm, emission 490 nm).

For series [4], the system named is GFP-PEST expression in monoclonal HEK293 cell lines. Description: Flow cytometry kinetics of GFP-PEST expression after simeprevir removal. To be noted: 24h simeprevir induction, then removal. The series is classed as cell-based, human.

Read-outs that look alike come from different tables or passages of the source.

B1: PRSIM_01: scFv PRSIM binding molecule, SEQ ID NO: 10 (protein)
scFv: QVQLVQSGAEVKKPGSSVKVSCKASGGTFSSYAISWVRQAPGQGLEWMGGIIPIFGTANYAQKFQGRVTITADESTSTAYMELSSLRSEDTAVYYCARGQGYITVFDYWGQGTLVTVSSGGGGSGGGGSGGGGSAQSVLTQPPSASGTPGQRVTISCSGSSSNIGSNTVNWYQQLPGTAPKLLIYSNNQRPSGVPDRFSGSKSGTSASLAISGLQSEDEADYYCAAWDHHWEQVVFGGGTKLTVL
modifications: PRSIM_01
In series [1], B1 came in with a fold-change in luminescence of 16 fold. In addition, the Max fold change was 5.83 in series [2] (PRSIM fused to AD, one copy) and 86.76 in series [2] (PRSIM fused to DBD, one copy). The EC50 result is “Ambiguous” in series [2] (PRSIM fused to AD, one copy) and 6.99 nM in series [2] (PRSIM fused to DBD, one copy, read-out: EC50).

B2: “WT” S139A: HCV NS3/4A protease with active site mutation S139A, SEQ ID NO: 2 (protein)
chain: MKKKGSVVIVGRINLSGDTAYAQQTRGEEGCQETSQTGRDKNQVEGEVQIVSTATQTFLATSINGVLWTVYHGAGTRTIASPKGPVTQMYTNVDKDLVGWQAPQGSRSLTPCTCGSSDLYLVTRHADVIPVRRRGDSRGSLLSPRPISYLKGSAGGPLLCPAGHAVGIFRAAVSTRGVAKAVDFIPVESLETTMRSP
modifications: HCV NS3/4A PR (S139A)
As to B2, the enzymatic activity entry in series [3] is given as “No enzymatic activity could be detected at most concentrations tested”. In series [2] (protease variant-AD and DBD-PRSIM_23 (three tandem copies)), this molecule registered a Max fold change of 6973. In addition, in series [4], the “GFP fluorescence after simeprevir removal” value is reported as “retained high GFP-fluorescence over 24 h”.

Broadly, the EC50 is the concentration that produces a half-maximal response.

The record behind these values is patent US20220380801A1, “TRIPARTITE SYSTEMS FOR PROTEIN DIMERIZATION AND METHODS OF USE” (priority 2019, published 2022).
